Laboratory results from patent US20220411514A1 (published 2022).

Biological target: hGal-3 (UniProt P17931 2-250)
Experiment: SPR

hGal-3, sequence (P17931 2-250): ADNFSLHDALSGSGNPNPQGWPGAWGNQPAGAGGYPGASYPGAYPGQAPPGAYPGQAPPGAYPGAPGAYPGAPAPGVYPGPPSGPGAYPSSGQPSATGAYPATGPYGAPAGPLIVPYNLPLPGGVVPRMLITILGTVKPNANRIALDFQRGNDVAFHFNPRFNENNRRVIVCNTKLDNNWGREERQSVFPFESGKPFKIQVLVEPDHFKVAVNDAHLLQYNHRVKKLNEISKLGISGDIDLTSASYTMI

Row | Binder | Kd [nM]
1 | 15G7.2A7 (antibody, V domains shown) VH: EVQLQQSGPELVKPGASVKISCKASGYTFTDYYMNWVKQSHGKSLEWIGDINPNNGGTNYNQKFKGKATLTVDKSSSTAYMELRSLTSEDSAVYYCTSGYGFPYWGQGTLVTVSA VL: DIQMNQSPSSLSASLGDTISITCRASQNINIWLSWYQQKPGNIPQLLIYKASNLHTGVPSRFSGSGSGTDFTLTISSLQPEDIATYYCLQGQSYPLTFGAGTKLVMKR | 11.3
2 | IMT-006 (antibody, V domains shown) VH: QVQLVQSGAEVKKPGASVKVSCKASGYSFTNYYMHWVRQAPGQRLEWMGWIYPGSGNTNYNEKFQGRVTITADTSASTAYMELSSLRSEDTAVYYCSTAPGGFDVWGQGTTVTVSS VL: DIVMTQTPLSLSVTPGQPASISCKSSKSLLHSDGITYLYWYLQKPGQSPQLLIYRMSNLASGVPDRFSGSGSGTDFTLKISRVEAEDVGVYYCAQMLEFPLTFGQGTKLEIKR | 16.5
3 | 13G4.2F8 (antibody, V domains shown) VH: QVQLQQPGAELVKPGASVKLSCKASGYTFTSYWMHWVKQRPGQGLEWIGMIHPNSGSTDYNEKFKNKATLNVDKSSSTAYIQLSSLTSEDSAVYYCTRWGIYYYARDYWGQGTTLTVSS VL: DIVMTQSQKFMSTSVGERVSITCKASQNVGTNVAWYQQKAGQSLELLIYGASNRHTGVPDRFTGSGSGTDFTLTITNVQSEDMTNYFCEQYSNFPLTFGAGTKLELKR | 2.53
4 | 6H6.2D6 (antibody, V domains shown) VH: QIQLVQSGPELKKPGETVKISCKASGYTFTTYGMSWVKQAPGKGLKWMAWINTYSGVPTYADDFKGRFAFSLETSASTAYLQINNLTNEDTATYFCARGPYAMDYWGQGTSVTVSS VL: DIQMTQTTSSLSASLGDRVTISCSASQGISNYLNWYQQKPDGTVKLLIYYTSSLHSGVPSRFSGSGSGTDYSLTISNLEPEDIATYYCQQYSELPYTFGSGTKLEIKR | 4.86
5 | 23H9.2E4 (antibody, V domains shown) VH: QIQLVQSGPELKKPGETVKISCKASGYTFTTYAMSWVKQAPGKGLKWMGWINTYSGVPTYADDLKGRFAFSLETSASTAYLQINNLKNEDTATYFCARGPYAMDYWGQGTSVTVSS VL: DIQMTQTTSSLSASLGDRVTISCSASQGINNYLNWYQQKPDGTVKLLIYYASSLHSGVPSRFSGSGSGTDYSLTISNLEPEDIATYYCQQYSQVPYTFGSGTKLEIK | 4.26
6 | IMT-001 (antibody, V domains shown) VH: QVQLVQSGSELKKPGASVKVSCKASGYTFTNYGMNWVRQAPGQGLKWMGWINTNTGEPTYVEEFTGRFVFSLETSVSTAYLQISSLKAEDTAVYFCAPYDNFFAYWGQGTTVTVSS VL: DIVLTQSPLSLPVTPGEPASISCRSSKSLLYKDGKTYLNWFLQKPGQSPQLLIYLMSTHASGVPDRFSGSGSGTDFTLKISRVEAEDVGVYYCQQLVDYPLTFGGGTKLEIKR | 6.09
7 | 4A11.2B5 (antibody, V domains shown) VH: QVQLQQSGPELVKPGASVKISCKASGYSFTNYYIHWVKQRPGQGLEWIGWIYPGSGNTNYNEKFKGKATLTADTSSSTTNMQLSSLTSEDSAVYYCSTAPGGFDVWGSGTTVTVSS VL: DIVMTQAAFSNPVTLGTSASISCRSSKSLLHSDGITYLYWYLQRPGQSPQLLIYRMSNLASGVPDRFSGSGSGTDFTLRISRVEAEDVGVYYCAQMLEFPLTFGAGTKLELKR | 5.22
8 | 9H2.2H10 (antibody, V domains shown) VH: QVQLQQPGAELVGPGSSVKLSCKASGYTFTNYWIHWVKQRPLQGLEWIGNIDPSDSETHYNQKFKDKATLTVDKSSSTAYMQLSSLTSEDSAVYYCARHGYYDYWGQGTTLTVSS VL: DIVMTQSHKFMSTSVGDRVSITCKASQDVSTAVAWYQQKPGQSPKLLIYWASTRHTGVPDRFTGSGSGTDYTLTISSVQAEDLALYYCQQHYTTPLTFGAGTKLELKR | 18.4

Further lines, results first:

Row | Kd [nM] | Binder
9 | 2.06 | 15F10.2D6 (antibody, V domains shown) VH: EVQLVESGGGLVKPGGSLKLSCAASGFAFSSYAMSWVRQTPEKRLEWVATISDGGVYTYYTDHVKGRFTISRDNAEDNLYLQMSHLKSEDTAMYYCVRDGGYWGQGTTLTVSS VL: DVLMTQTPLSLPVSLGDQASISCRSSQSIVHNNGNTYLEWYLQKPGQSPKLLIYKVSNRFSGVPDRFSGSGSGTDFTLKISRVEAEDLGVYYCFQGSHVPLTFGGGTKLELKR
10 | 2.49 | 7D8.2D8 (antibody, V domains shown) VH: EVQLVESGGGLVKPGGSLKLSCAASGFTFSSYAMSWVRQTPEKRLEWVATISDGGIYTYYPDNVKGRFTISRDNAKNNLFLQMSHLKSEDTAMYYCVRDGGYWGQGTTLTVSS VL: DVLMTQTPLSLPVSLGDQASISCRSSQSIVHSNGNTYLEWYLQKPGQSPKLLIYKVSNRFSGVPDRFSGSGSGTDFTLKISRVEAEDLGVYYCFQGSHVPLTFGAGTKLELKR
11 | < 1 | 4G2.2G6 (antibody, V domains shown) VH: QIQLVQSGPDLKKPGETVKISCKASGYTFTTYVMSWVKQAPGKDLKWMGWINTHSGVPTYADDFKGRFDFSLETSANTAFLQINNLKNEDTATYFCTRDGNDGDAMDNWGQGTSVTVSS VL: not shown
12 | < 1 | 19B5.2E6 (antibody, V domains shown) VH: QIQLVQSGPELKKPGETVKISCKASGYTFTTYAMSWVKQAPGKGLKWMGWINTYSGVPTYADDLKGRFAFSLETSASTAYLQINNLKNEDTATYFCARGPYAMDYWGQGTSVTVSS VL: DIQMTQTTSSLSASLGDRVTISCSASQGINNYLNWYQQKPDGTVKLLIYYASSLHSGVPSRFSGSGSGTDYSLTISNLEPEDIATYYCQQYSQVPYTFGSGTKLEIKR
13 | < 1 | 19D9.2E5 (antibody) chain 1: QIQLVQSGPELKKPGETVKISCKASGYTFTTYGMGWVKQAPGKGLKWMGWINTYSGVPTYADDFKGRFAFSLETSTSTAYLQINNLKNEDMATYFCATPYEYDGAYWGQGTLVTVSA chain 2: not shown
14 | < 1 | 3B11.2G2 (antibody, V domains shown) VH: QIQLVQSGPELKKPGETVKISCKTSGYKFKTYVMSWVKQAPGKALKWMGWINTYSGVPTYADDFKGRFAFSLETSASTAYLEIINLKNEDTATYFCARDGNYGDPMDYWGQGTSVTVSS VL: not shown
